In PMC12689202 one finds Kd data, which are given here for three substances.

By Kd is commonly meant the free concentration of one partner at which half of the binding sites on the other are occupied at equilibrium, for simple one-to-one binding. Low readings indicate higher affinity, high ones lower affinity.

This assay has as its target C3b (biotinylated) (human) (UniProt P01024). As to the kind of experiment: BLI; Octet RH384 (Sartorius); biotinylated C3b immobilized onto streptavidin biosensors; mini-CR1, FH or FHL-1 in the fluid phase. (In general: In BLI a coated tip is dipped into the sample, and binding shifts an interference pattern.)
In turn, “factor H (from UniProt P08603 19-1231) (natural protein)” came in with a Kd of 583 nM. That is a sub-micromolar value.
Substance “factor H-like protein 1 (from UniProt P08603-2 19-449) (natural protein)” yielded a Kd of 1170 nM. This Kd lies about 2-fold higher than the previous one.
In turn, “mini-CR1 (soluble fragment of complement receptor 1, complement control proteins 8-10) (domain or fragment)” had a Kd of 21 nM. Against the preceding substance, the Kd is about 56-fold lower.
